Data reported in US20050153377A1 (ORIENTAL YEAST CO., LTD., priority 1999, published 2005).
Values belong to the molecule of their own block, whether it stands above or below them.

How the values were obtained:
CRP = target: T1, CRP (Homo sapiens, UniProt P02741); test: CRP activity to bind to immobilized PC-BSA, PC-antibody method (C); type: binding; details: Eu3+-labeled anti-CRP antibody, FIG. 6
T1 construct: purchased Oriental Yeast Co., Ltd. (Japan); host or cells: Escherichia coli
T1 sequence (P02741 19-224): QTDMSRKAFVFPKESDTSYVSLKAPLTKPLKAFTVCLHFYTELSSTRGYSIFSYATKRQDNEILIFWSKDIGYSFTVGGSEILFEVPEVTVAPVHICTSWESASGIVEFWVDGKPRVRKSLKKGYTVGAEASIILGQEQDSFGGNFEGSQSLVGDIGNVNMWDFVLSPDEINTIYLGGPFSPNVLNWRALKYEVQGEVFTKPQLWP
Description: Because it was difficult to immobilize PC-BSA without modification of the microtiter plate, PC-BSA was immobilized on the wells of a microtiter plate by using the PVLA method [Suzuki, N., et al., (1997) Anal. Biochem. 247, 4-12-416]. PVLA (2 mg) was suspended in 1 ml of water by ultrasonication; the resulting PVLA suspension of 40 μl was added to each well, for overnight incubation at 4° C. 1 mM NaIO4 solution was added in 50 μl-portions to each well, and the plate was incubated in darkness at ambient temperature for one hour. After the plate was washed, the PC-BSA solution (100 ng protein in 40 μl of water) was added to each well, followed by mixing with 5 μl of 2% (v/v) borane-pyridine complex, for incubation at 37° C. for 2 hours. The wells were blocked through incubation with 1M glycylglycine (40 μl) at 37° C. for 4 hours, and then followed by incubation with 200 μl of TBS containing 2% (w/v) BSA at 4° C. overnight. After the added solutions were removed at the individual stages of the following method, the wells were washed six times with 200 μl of TBS.
So as to immobilize PC58- or PC7-BSA solution (40 μl containing […] and PC of about 120 pmol or 15 pmol) in water, the solution was left to stand in the PVLA-coated well. After the wells were coated with PC-BSA and blocked with BSA, they were then washed six times with TBS (200 μl). […]

[1] = target: PC58-BSA (conjugate with 58 phosphorylcholine molecules on average bound per one bovine serum albumin molecule) (bovine) (UniProt P02769); test: quantitative precipitation at saturation, 20 µg PC58-BSA with 50 µg CRP
Chain of PC58-BSA (conjugate with 58 phosphorylcholine molecules on average bound per one bovine serum albumin molecule) (bovine) (P02769 25-607 limits assumed, form in doubt): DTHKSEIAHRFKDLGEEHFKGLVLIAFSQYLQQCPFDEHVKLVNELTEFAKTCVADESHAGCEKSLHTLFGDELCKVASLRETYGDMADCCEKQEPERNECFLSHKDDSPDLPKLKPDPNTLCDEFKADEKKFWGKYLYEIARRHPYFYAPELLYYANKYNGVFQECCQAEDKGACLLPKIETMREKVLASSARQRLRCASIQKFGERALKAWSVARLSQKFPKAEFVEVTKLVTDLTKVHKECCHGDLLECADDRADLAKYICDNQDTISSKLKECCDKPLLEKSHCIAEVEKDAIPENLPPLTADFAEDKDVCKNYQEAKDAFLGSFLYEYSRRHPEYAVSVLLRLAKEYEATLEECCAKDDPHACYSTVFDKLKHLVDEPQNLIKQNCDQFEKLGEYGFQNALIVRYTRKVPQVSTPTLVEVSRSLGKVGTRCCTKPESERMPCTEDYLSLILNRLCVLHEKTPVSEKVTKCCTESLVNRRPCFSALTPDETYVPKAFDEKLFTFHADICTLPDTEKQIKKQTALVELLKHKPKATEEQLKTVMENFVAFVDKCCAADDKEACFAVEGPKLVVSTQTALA

anti-CRP antibody (IgG) bound per PC-BSA-coated well (CRP): 5.6 fmol per well
Molecule: PC58-BSA: conjugate where 58 PC molecules on average are bound per one BSA molecule

anti-CRP antibody (IgG) bound per PC-BSA-coated well (CRP): 2.2 fmol per well
Molecule: PC7-BSA: PC conjugate of bovine serum albumin (BSA) produced by the previously reported method

amount of CRP in the precipitate [1]: 0.37 nmol | amount of PC58-BSA in the precipitate [1]: 0.17 nmol | ratio PC58-BSA:CRP in the precipitate (mol CRP (pentamer) per mol PC58-BSA) [1]: 2.2
B1: Recombinant human C-reactive protein (rhCRP) expressed in Escherichia coli (protein, UniProt P02741 19-224, looked up)
chain: T1 sequence (P02741 19-224)
